Residue numbers refer to the chain shown, from its start.
B1: humanized 7B3 (h7B3), Fc version not stated (antibody, V domains shown)
VH: EVQLVESGGGLVQPGGSLRLSCAASGFTFSTYGFHWVRQAPGKGLEWVAYISSNSGTIDYADTVKGRFTISRDNAKNSLYLQMNSLRAEDTAVYYCARQGYGFDNWGQGTTVTVSS
VL: DIQLTQSPSSLSASVGDRVTITCSASSRVSYMNWYQQKPGKSPKIWVYGISNLASGVPSRFSGSGSGTDFTFTISSLQPEDIATYYCQQRSSHPLTFGGGTKVEIK
B2: humanized 8E11 (h8E11), Fc version not stated (antibody, V domains shown)
VH: B1 VH with S30R, F34M, N54G, A97T, G100T, Y101G, G102A, F103M, N105Y, T111L
VL: EIVLTQSPATLSLSPGERATLSCSASSSVSYMNWYQQKPGQSPRLWIYGISNLASGVPARFSGSGSGTDFTLTISSLEPEDFAVYYCQQRSSHPLTFGGGTKVEIK
B3: humanized 6E1 (h6E1), Fc version not stated (antibody, V domains shown)
VH: EVQLVQSGAEVKKPGASVKVSCKASGYTFTNYWMHWMRQAPGQGLEWLGRIHPSDSDTNYNQKFKGRATLTVDKSISTAYMELSRLRSDDTAVYYCAIEGTGKGYFDVWGRGTLVTVSS
VL: DIQMTQSPSSLSASVGDRVTITCKASQDIYSYLSWFQQKPGKSPKTLIYRANRLVDGVPSRFSGSGSGQDFTLTISSLQPEDFATYYCLHYDEFPLTFGGGTKVEIK

Target: mutagenized ULBP6 phage library (pool of ULBP6 mutants displayed on M13 phage)
Assay: plate panning; antibody coated at 5 ug/mL, eluted phage titered against PBS-coated background wells

Row | Binder | Phage enrichment
1 | B1 | 75 fold
2 | B2 | 145 fold
3 | B3 | 220 fold

From US20250084172A1
